From the Immune Epitope Database (IEDB)
pKd: −log10 of the molar value.

What follows are sequences tested against HLA-A*01:01 (assay: IEDB peptide-MHC binding, purified MHC/competitive/fluorescence; filed as Kd, often an IC50 or EC50 that approximates it; ≥ and ≤ were set here for values at or beyond the usual limits of such assays). Conditions: source organism: Coxiella burnetii.

Sequence	pKd
ETYNSINKY	≤ 3.00
FFEDFTHRY	≤ 3.00
HTYYLIGFLY	≤ 4.30
KTEQDKLSY	≤ 4.30
LTLLLNWVNY	≤ 4.30
MVEEKYNYFY	≤ 5.30
QSGWTIHHY	≤ 3.00
SLESGFTYY	≤ 5.30
VSDATVAKWY	≤ 4.30
VTLVEFFDY	≤ 3.00

What follows are sequences tested against HLA-A*02:01 in the same assay as above. Conditions: source organism: Coxiella burnetii.

Sequence	pKd
FLFFYSGLIL	≤ 5.30
FLIAVFARHL	≤ 5.30
IMIDRLIEQL	≤ 5.30
LLWHGVSTL	≤ 5.30
MLWLPLLLIL	≤ 5.30
NMFQHLPYL	≤ 5.30
RMYISFFPL	≤ 5.30
VIDDLIVYRV	≤ 4.30
YLLDRCPFL	≤ 5.30
YLVNHPEVL	≤ 4.30

The sequences below were run against HLA-A*03:01 in the same assay as above. Conditions: source organism: Coxiella burnetii.

Sequence	pKd
ASFQNYLNDY	≤ 3.00
ATSNLIYKLK	≤ 5.30
GVDRFITYK	≤ 5.30
ISYDRFTVGK	≤ 5.30
KLILFVYRY	≤ 4.30
KTFVYPMGLY	≤ 5.30
LLSTLCLYRK	≤ 4.30
LSATFITSK	≤ 5.30
SLFANMNGHY	≤ 4.30
VLDCNYLSK	≤ 5.30

Each sequence was assayed against HLA-A*24:02 in the same assay as above. Conditions: source organism: Coxiella burnetii.

Sequence	pKd
GYHSITPYLF	≤ 5.30
IYDDRLLFEF	≤ 5.30
LYDDEFKFL	≤ 5.30
NFSDYIWHF	≤ 5.30
QYLQYLWPL	≤ 5.30
SFVPKFFLTF	≤ 5.30
TYRHNKKLL	≤ 4.30
TYRVLNYKDL	≤ 4.30
WYVVNNNYL	≤ 5.30

Each sequence was assayed against HLA-B*07:02 in the same assay as above. Conditions: source organism: Coxiella burnetii.

Sequence	pKd
KPLQVINRKY	≤ 3.00
LPQKPWWKF	≤ 3.00
LPRNRYRLVF	≤ 5.30
LPRRHNFYNY	≤ 3.00
SPHPRVNQF	≤ 5.30
TPDFPQLFF	≤ 4.30
TPTFVIGNKA	≤ 3.00

These sequences were tested against HLA-B*44:02 in the same assay as above. Conditions: source organism: Coxiella burnetii.

Sequence	pKd
EEFVKTQSY	≤ 5.30
FEALHLLYAL	≤ 3.00
GEEATAFLRY	≤ 4.30
IERVFYYFPL	≤ 3.00
IEVVKKYMDY	≤ 3.00
KDIQSIVHHY	≤ 3.00
METPPQSPDF	≤ 3.00
MEVRDLLNSY	≤ 5.30
NEIETATRY	≤ 5.30
REMYSRRRMY	≤ 5.30
